Experiment: soluble fraction after stress (log2 fold change); higher = more stays soluble; pooled small domains, quantitative proteomics
Details: stress: 75 degC
For “HMTRVANIPYSEFLKLVETDKINDVSMVGKTISGHLDDGTKFSTYTPPNDPNLIDKLSKHNVIIKAGPE”, the “soluble fraction (log2)” value was -0.000643. With “HMTRVDKLQTWLSLPREQRDWDEGALMLLQLTGNKIMYRNLSVNPEGKANFIEGKLQQYLEFRLA” the “soluble fraction (log2)” value was -1.25. With “HMTSAHEKAFDLFDGGKLSEKALLIAVGAERSGFELAGDLRLRTLTAFEDGRLSEDAMIKLL” the “soluble fraction (log2)” value was -0.299. In the case of “HMTSAIAEGTVIRLTQSTNIRESMSEDAPKVATAFSGEKVTVIMSYAEGWTKVTYGDKTGYIKTELL”, the “soluble fraction (log2)” value is reported as -1.1. In the case of “HMTSAPHHIAAVLRDAIYRGVLEEGGPLHQARIAQSLGVSPIPLREALRLLETEGLVEFRGYRGAFVT”, the “soluble fraction (log2)” value is reported as -0.557. In the case of “HMTSDADSLRDKTGYVAEQVTSKGGKVNLYDGGFDSLYSARSTGETISTGTEIRVVDPGGGNMLVVEPV”, the “soluble fraction (log2)” value is reported as 0.948. In the case of “HMTSDYEPSEKDEKAVIGIAFLRNTDVYDVDIDKAEAIKALKANNDIYQKFVKFFPFVKLPSLYDDFQ”, the “soluble fraction (log2)” value is reported as 0.251. With “HMTSGPAWPALSAQQRSVLAPLQRDWHTIDAARKAKWLEVAARFPSMPAEERQRVQERMAEWA” the “soluble fraction (log2)” value was -0.0911. In the case of “HMTSKIIIGDSYSKINKLLGEPENMKKRKFLDNEYLMVLYSINKKNYRLYFKDNILFELEDI”, the “soluble fraction (log2)” value is reported as -0.991. For “HMTSLQDLLEELRVIRETLTGSQVLSDMQLFSQLRNLGDIKAALTRMQDNPAAARMVGEVDKLLETMFAS”, the “soluble fraction (log2)” value was -1.97. For “HMTSLSYINDLVTGATAQGLYRIVVPNQFMDDNMANVLRRTYGYQVQSRTSLMGTFDDYIISWAPPM”, the “soluble fraction (log2)” value was -2.9. For “HMTSMTHLGRHPDSEISLDDISVSRRHAEIERQGHEYVLRDSGSLNGTYVNQQRVDSVVLQQGDEIL”, the “soluble fraction (log2)” value was 0.48. With “HMTSPLQIHPNPATKHIELGLESPEVVLIKDINGKTVYQELVAPNQYIDIEHLKNGIYFIESKNKFGKLIK” the “soluble fraction (log2)” value was 0.0829. With “HMTSPNPLIRSTTPGLETNKKGGIIVDENEMSTRENVFAGGDAVTGAATVILAMGAGKKAAAAIDAKLQN” the “soluble fraction (log2)” value was 0.461. With “HMTSPQGIERFLASGVIEGVGKAMAARIVAVFGGQTLEIIEKQPHRLREVRGIGVKTAEKIHASYQEKA” the “soluble fraction (log2)” value was -0.841. With “HMTSPVEDLLDKAIQLYREENFEEAIAKWEEVLALDPSKLEAKFNIEIAQDRIKEKQIQEDLKSS” the “soluble fraction (log2)” value was 0.341. In the case of “HMTSQVTVHVVGAVEKPGVVTLDAPSRVQDALEAAGGALPEAELSGVNLARELFDGEQIVVPAQGEDV”, the “soluble fraction (log2)” value is reported as 0.342. With “HMTSSVIIPKLIGKTEEEAKVALAGLNVQVLYETHGDQANGIVIKQSFEEGTKVIKGVSIVITVNKVS” the “soluble fraction (log2)” value was -1.91. In the case of “HMTSTEQEILIEHMVDRLPALRKKYGISQTELGEKIGLSRQTISAIERKTTPLTWTTMLAILMFFT”, the “soluble fraction (log2)” value is reported as -1.82. In the case of “HMTSTSVKYVNSSSGLNVRKGPSTSYDKVTTLVNGTKVTVISTNNGWSKITSGSITGYVSSQYLSSSS”, the “soluble fraction (log2)” value is reported as -1.27. With “HMTSVAYVIDRINKIQNVYSELEALGLKDEFEKILSNIEDLSKKDIREIKTLLKTKGVIKNLDDLNVKL” the “soluble fraction (log2)” value was 0.762. With “HMTSVQDLLRNGDRVGYQNGSTVKYWLEEMGFHKKDLLGYVTVEEYAEALQRGSGNGGVSAIVD” the “soluble fraction (log2)” value was -0.811. In the case of “HMTTARERVYKTLQQWIVNGTLLPEERLNDVELARYFSVSRTPVREALQMLAEQKLVKMVPSSGTFVA”, the “soluble fraction (log2)” value is reported as -1.44. With “HMTTELDTTAITPIIQKVLKANPDVVAKYKAGQQQVIGFLMGQVMRELSTKPNPKELQSLIVAQLQQA” the “soluble fraction (log2)” value was -0.0252. For “HMTTGEIIQRERTRLGLSQEKLAEQVGVSRQAVSKWELGDAVPDTDKLVPLARTLGISVDTLLD”, the “soluble fraction (log2)” value was 0.12. For “HMTTGGAEELGRTERKIVEQVGRGLSNREIAQVLGLSEGTVRNYLSTILGKLGLRDRTQLAIWSVQTGFAA”, the “soluble fraction (log2)” value was 0.21. With “HMTTHERHEIIELLRQVGDPMRPKEISEALGKPSGAIRFLLSKLTEEGAIKKTGYGQYTYIP” the “soluble fraction (log2)” value was -0.784. With “HMTTLTPIGKMKGEIDGDFEAFYLAVDKDGQVYLNRDPDYSENRYEKSRGWELVTREQLAVYEKELHFIP” the “soluble fraction (log2)” value was -0.707. With “HMTTMYKSDVKGINYDVKAKSWFLRITFNGNQIPIGHFKTEEDAINVKQQLIPYIESKDYTSILAVKAKYS” the “soluble fraction (log2)” value was -1.9. In the case of “HMTTPDIIVPDVKGMTVAEAQKALEEKGFKVKLEEMTQEGAVPGDVIRIDPVAGTKRKEGAKITLLIARG”, the “soluble fraction (log2)” value is reported as -0.0237. In the case of “HMTTQTGTVKWFNEGKGFGFIAPDDGGKDLFAHFKEIQGTGFKTLAENQRVEFEVTQGQKGPQASKI”, the “soluble fraction (log2)” value is reported as -0.0331. In the case of “HMTTQTTKYVNTTAGLNVRTGPSTSYAKIVTLSYGQSVNVLSTSNGWSKINYNGSTGYVSSQYLQSTKPS”, the “soluble fraction (log2)” value is reported as -2.28. In the case of “HMTTSNPMNVTSAEAAFDNGTDRLNAFISGRTTSEERSTYFPLFVRETKEDFLRAVGRFNEYIANHG”, the “soluble fraction (log2)” value is reported as 0.055. With “HMTTTAGTAVVQTGNSGKLNLREQAYSNAGILGRYSNGTIVTVLQKGSAWSYVEVQGQKGYMMSKFLRFT” the “soluble fraction (log2)” value was -2.75. In the case of “HMTTTFGWENLVGEKGIAATDLHPSGWVTVKDQRVFVVSEGTFIEEGKEVEIMNVDGNRIVVREFKN”, the “soluble fraction (log2)” value is reported as 0.216. With “HMTTTPTSQMVTELRSRGWTLRALAQRLGVGHASINRWANGVTPDRDLVAALRALVASGEVP” the “soluble fraction (log2)” value was -0.833. In the case of “HMTTTYEINDEMLKPLILEIFNKSKQRFGSTKIAPVLKREGYTASIAKVKTLMNELGIKPVNA”, the “soluble fraction (log2)” value is reported as -1.07. With “HMTTTYTVPKVTGMTLEEAREDPDVVGRFTIVEGEKVTSDTVPVGQIVSQEPAAHRQVGEDGLTITVNIS” the “soluble fraction (log2)” value was 0.634. With “HMTTVKDRVYEILKREIVLGKLKPGEPINIAVLSTKLNISSAPLREALNMLSRDGLVTLNPRKHAAVSE” the “soluble fraction (log2)” value was -1.31.

Source: the domain aggregation screens of Martell et al. (2025)
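Further: 20 min heating vs room temperature control held 20 min.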
